A word on the Kd: it is a measure of binding affinity in units of concentration. A higher Kd goes with weaker binding.

The results in this text go back to PMC7144908.

For series [1], the target named is SV40 large T antigen (Tag);Replication protein A (RPA) (Simian virus 40;human, UniProt P03070;P27694;P15927;P35244 1-708;1-616;1-270;1-121, |). Briefly: EMSA.
The target of series [2] is T1, SV40 large T antigen (Tag) (Simian virus 40, UniProt P03070 1-708). As to the kind of experiment: EMSA.
Series [3] concerns the target T1, SV40 large T antigen (Tag). As to the kind of experiment: DSF. A general note: DSF heats the sample and reads unfolding from a dye or from intrinsic fluorescence.
Series [4] has as its target T1, SV40 large T antigen (Tag). As to the kind of experiment: EMSA. This is another data set of the same source. In general terms: Mobility shift assays separate free from complexed probe on a gel.
The target in series [5] is Replication protein A (RPA) (human, UniProt P27694;P15927;P35244 1-616;1-270;1-121). As to the kind of experiment: EMSA.
Chain of Replication protein A (RPA) (P27694 whole entry, chain 1 of 3): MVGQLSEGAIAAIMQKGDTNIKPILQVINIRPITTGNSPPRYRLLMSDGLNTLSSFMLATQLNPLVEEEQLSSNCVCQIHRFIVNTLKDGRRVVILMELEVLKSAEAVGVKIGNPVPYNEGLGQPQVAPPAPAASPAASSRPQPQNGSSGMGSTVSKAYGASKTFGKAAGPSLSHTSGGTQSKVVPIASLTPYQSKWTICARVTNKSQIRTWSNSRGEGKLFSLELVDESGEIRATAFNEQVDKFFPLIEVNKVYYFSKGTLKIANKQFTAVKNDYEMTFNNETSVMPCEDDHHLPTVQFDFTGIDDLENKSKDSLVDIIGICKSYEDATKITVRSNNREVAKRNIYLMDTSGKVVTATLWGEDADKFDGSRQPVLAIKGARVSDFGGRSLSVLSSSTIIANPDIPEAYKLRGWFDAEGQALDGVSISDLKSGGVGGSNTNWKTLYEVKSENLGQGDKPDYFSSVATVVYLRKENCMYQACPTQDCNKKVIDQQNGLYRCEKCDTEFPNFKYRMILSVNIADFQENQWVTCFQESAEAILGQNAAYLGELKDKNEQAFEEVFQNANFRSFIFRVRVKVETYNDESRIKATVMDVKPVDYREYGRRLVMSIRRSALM
Chain of Replication protein A (RPA) (P15927 whole entry, chain 2 of 3): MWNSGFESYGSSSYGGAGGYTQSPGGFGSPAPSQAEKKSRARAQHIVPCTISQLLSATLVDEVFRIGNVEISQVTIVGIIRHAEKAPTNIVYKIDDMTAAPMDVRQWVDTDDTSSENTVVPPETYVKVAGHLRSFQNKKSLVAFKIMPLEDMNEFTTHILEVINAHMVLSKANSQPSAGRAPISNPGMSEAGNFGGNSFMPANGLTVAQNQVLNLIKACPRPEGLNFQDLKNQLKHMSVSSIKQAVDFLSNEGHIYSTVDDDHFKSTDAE
Chain of Replication protein A (RPA) (P35244 whole entry, chain 3 of 3): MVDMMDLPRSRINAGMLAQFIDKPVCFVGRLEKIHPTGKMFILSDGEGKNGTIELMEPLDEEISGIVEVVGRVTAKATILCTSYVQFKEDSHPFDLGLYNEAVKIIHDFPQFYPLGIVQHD
Series [6] addresses T1, SV40 large T antigen (Tag). As to the kind of experiment: EMSA. The source holds these as a separate data set.
For series [7], the target named is T1, SV40 large T antigen (Tag). Briefly: DSF. This is another data set of the same source.
Series [8] deals with T1, SV40 large T antigen (Tag). As to the kind of experiment: EMSA. The source holds these as a separate data set.
The target of series [9] is T1, SV40 large T antigen (Tag). As to the kind of experiment: EMSA. The source holds these as a separate data set.
Series [10] addresses T1, SV40 large T antigen (Tag). Briefly: EMSA. This is another data set of the same source.
Series [11] has as its target T1, SV40 large T antigen (Tag). Briefly: DSF. This is another data set of the same source.
Series [12] addresses T1, SV40 large T antigen (Tag). Briefly: DSF. This is another data set of the same source.
For series [13], the target named is T1, SV40 large T antigen (Tag). Briefly: EMSA. The source holds these as a separate data set.
The target in series [14] is T1, SV40 large T antigen (Tag). As to the kind of experiment: AUC.

T1 sequence (P03070 whole entry): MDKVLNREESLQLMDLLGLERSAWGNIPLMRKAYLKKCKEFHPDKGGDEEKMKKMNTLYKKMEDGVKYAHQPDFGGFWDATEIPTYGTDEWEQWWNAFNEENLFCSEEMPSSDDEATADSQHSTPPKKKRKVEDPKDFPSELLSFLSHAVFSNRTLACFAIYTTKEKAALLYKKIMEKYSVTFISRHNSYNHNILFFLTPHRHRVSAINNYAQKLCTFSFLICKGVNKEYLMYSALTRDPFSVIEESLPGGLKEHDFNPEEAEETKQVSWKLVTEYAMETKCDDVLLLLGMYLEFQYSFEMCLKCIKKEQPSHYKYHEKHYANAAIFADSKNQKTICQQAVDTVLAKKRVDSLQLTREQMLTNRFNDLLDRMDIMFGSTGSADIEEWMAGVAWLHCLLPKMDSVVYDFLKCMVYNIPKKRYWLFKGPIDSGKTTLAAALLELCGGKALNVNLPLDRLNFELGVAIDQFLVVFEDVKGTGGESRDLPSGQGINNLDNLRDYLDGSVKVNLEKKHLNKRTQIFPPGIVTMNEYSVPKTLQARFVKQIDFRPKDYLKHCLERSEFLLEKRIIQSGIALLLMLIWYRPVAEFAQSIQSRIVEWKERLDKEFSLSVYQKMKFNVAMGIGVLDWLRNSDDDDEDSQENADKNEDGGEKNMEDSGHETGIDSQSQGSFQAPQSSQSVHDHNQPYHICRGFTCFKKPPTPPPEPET
Chain of SV40 large T antigen (Tag);Replication protein A (RPA) (P03070 whole entry, chain 1 of 4): as the sequence (P03070 whole entry) above
Chain of SV40 large T antigen (Tag);Replication protein A (RPA) (P27694 whole entry, chain 2 of 4): as the sequence (P27694 whole entry, chain 1 of 3) above
Chain of SV40 large T antigen (Tag);Replication protein A (RPA) (P15927 whole entry, chain 3 of 4): as the sequence (P15927 whole entry, chain 2 of 3) above
Chain of SV40 large T antigen (Tag);Replication protein A (RPA) (P35244 whole entry, chain 4 of 4): as the sequence (P35244 whole entry, chain 3 of 3) above

B1: ssDNA(GAPDH) (ssDNA)
DNA: CGACAGTCAGCCGCATCTTCTTTTGCGTCGCCAGCCGAGCCCTATAGTGAGTCGTAT
Turning to B1, the binding result in [1] is recorded as “binds”. The Kd was 80 ± 40 nM in series [2]; 10 ± 1 nM in [3]; approximately 110 nM in [4]; approximately 10 nM in series [5]; 40 ± 10 nM in series [6].

B2: dsDNA(GAPDH) (dsDNA)
DNA 1: B1 DNA
DNA 2: ATACGACTCACTATAGGGCTCGGCTGGCGACGCAAAAGAAGATGCGGCTGACTGTCG
On to B2, for which binding in series [7] was put at a Kd of 5800 ± 4000 nM.

B3: ssDNA(Site2) (ssDNA)
DNA: GCTCAGAGGCCGAGGCGGCCTCGGCCTCTGCATAAATAAAAAAAATTAGTCAGCCAT
Turning to B3, the dissociation constant Kd is 50 ± 10 nM in [3]; 70 ± 10 nM in [8]; 40 ± 5 nM in series [9]; 40 ± 10 nM in [10]; 200 ± 60 nM in series [11]; 40 ± 7 nM in series [7]. Also, the equilibrium dissociation constant (Kd) in series [6] amounted to 70 ± 8 nM; in series [12], 100 ± 30 nM; in [13], 80 ± 30 nM.

B4: dsDNA(Site2) (dsDNA)
DNA 1: B3 DNA
DNA 2: ATGGCTGACTAATTTTTTTTATTTATGCAGAGGCCGAGGCCGCCTCGGCCTCTGAGC
Regarding B4, the figures for the Kd in series [9], in [7] and in series [6] were 100 ± 50 nM, 120 ± 110 nM and 220 ± 130 nM, respectively.
Turning to GGTCGACTCTAGAGGATCAGATCTGGTACCTCTAGACTCGAGGCATGC (ssDNA) [ssDNA (gap) 48-mer], in [14], the binding result is “binds”.
